Positions count from the first letter of the chain named.
Key:
Experiment in all cases: SPR (BIACORE), antibody captured, FcgR analyte
[1] = molecular target: T1, human FcγRIIaH extracellular domain with C-terminal His-tag (human, UniProt P12318 34-217)
T1 construct: also called human FcgRIIaH; FcγRIIa (type H)
T1 sequence: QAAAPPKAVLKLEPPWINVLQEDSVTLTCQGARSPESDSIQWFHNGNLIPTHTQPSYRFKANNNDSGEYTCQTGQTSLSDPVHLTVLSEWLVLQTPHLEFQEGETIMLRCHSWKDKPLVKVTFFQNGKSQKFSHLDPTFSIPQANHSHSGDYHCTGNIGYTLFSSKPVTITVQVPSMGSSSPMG

[2] = molecular target: T2, cynomolgus monkey FcγRIIIaS extracellular domain with C-terminal His-tag (cynomolgus monkey, UniProt Q8SPW2 21-206 at identity 1.00))
T2 construct: also called cyno FcgRIIIaS; cynoFcγRIIIaS
T2 chain: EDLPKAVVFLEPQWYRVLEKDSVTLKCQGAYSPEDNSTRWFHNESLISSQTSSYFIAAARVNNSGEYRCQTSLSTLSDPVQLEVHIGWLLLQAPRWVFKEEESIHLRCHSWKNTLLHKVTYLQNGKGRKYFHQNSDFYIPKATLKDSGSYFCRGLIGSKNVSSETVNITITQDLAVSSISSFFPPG

[3] = molecular target: T3, human FcγRIIaR extracellular domain with C-terminal His-tag (human, UniProt P12318 34-217)
T3 construct: also called human FcgRIIaR; FcγRIIa (type R)
T3 chain: T1 sequence with H134R

[4] = molecular target: T4, cynomolgus monkey FcγRIIb extracellular domain with C-terminal His-tag (cynomolgus monkey)
T4 construct: also called cyno FcgRIIb; cynoFcγRIIb
T4 chain: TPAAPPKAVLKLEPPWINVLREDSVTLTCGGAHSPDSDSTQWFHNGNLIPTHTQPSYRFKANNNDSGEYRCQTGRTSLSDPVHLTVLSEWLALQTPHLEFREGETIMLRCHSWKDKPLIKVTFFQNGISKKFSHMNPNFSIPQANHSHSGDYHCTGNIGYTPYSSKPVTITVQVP

[5] = molecular target: T5, cynomolgus monkey FcγRIIa3 extracellular domain with C-terminal His-tag (cynomolgus monkey)
T5 construct: also called cyno FcgRIIa3; cynoFcγRIIa3
T5 chain: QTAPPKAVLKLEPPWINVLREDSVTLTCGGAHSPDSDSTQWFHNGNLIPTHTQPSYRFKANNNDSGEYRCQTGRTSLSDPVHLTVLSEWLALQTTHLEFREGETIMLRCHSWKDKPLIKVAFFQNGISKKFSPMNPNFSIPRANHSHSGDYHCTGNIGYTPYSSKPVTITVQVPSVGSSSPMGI

[6] = molecular target: T6, human FcγRIIb extracellular domain with C-terminal His-tag (human, UniProt P31994 43-217)
T6 construct: also called human FcgRIIb
T6 sequence: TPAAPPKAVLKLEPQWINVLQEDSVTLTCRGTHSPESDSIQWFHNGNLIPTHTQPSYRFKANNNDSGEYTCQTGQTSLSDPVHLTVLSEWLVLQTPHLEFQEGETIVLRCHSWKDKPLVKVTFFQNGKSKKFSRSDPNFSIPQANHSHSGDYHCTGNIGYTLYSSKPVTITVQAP

[7] = molecular target: T7, cynomolgus monkey FcγRIIa1 extracellular domain with C-terminal His-tag (cynomolgus monkey)
T7 construct: also called cyno FcgRIIa1; cynoFcγRIIa1
T7 chain: T5 chain with T95P, A121T, S128A, P133H, N135D

[8] = molecular target: T8, cynomolgus monkey FcγRIIa2 extracellular domain with C-terminal His-tag (cynomolgus monkey)
T8 construct: also called cyno FcgRIIa2; cynoFcγRIIa2
T8 chain: T5 chain with I127K, K130N, P133H, R142Q

B1: M103205H795-MY522/M103202L889-SK1 (antibody, human IgG1, kappa)
heavy: QVTLKESGPVLVKPTETLTLTCTVSGIDLSHDDISWVRQAPGKGLEWVGIISYAGSTYYASWAKGRLTISKDTSKNQVVLTMTNMDPVDTATYYCARGVPAYSHGGDLWGQGTLVTVSSASTKGPSVFPLAPSSKSTSGGTAALGCLVKDYFPEPVTVSWNSGALTSGVHTFPAVLQSSGLYSLSSVVTVPSSSLGTQTYICNVNHKPSNTKVDKKVEPKSCDKTHTCPPCPGPELLTGPVVFLFPPKPKDTLMISRTPEVTCVVVDVSDEDPEVKFNWYVDGVEVHNAKTKPREEQYNSTYRVVSVLTVLHQDWLNGKEYKCKVSNKALPKPIEKTISKAKGQPREPQVYTLPPSREEMTKNQVSLTCLVKGFYPSDIAVEWESNGQPENNYKTTPPVLDSDGSFFLYSKLTVDKSRWQQGNVFSCSVMHEALHNHYTQKSLSLSP
light: DIVMTQSPATLSLSPGERATLSCTSSQSVYHANWLSWFQQKPGQPPKLLIYWASTLAYGVPSRFSGSGSGTDFTLTISSLQPEDAATYYCAGGYGGGRYAFGQGTKVEIKRTVAAPSVFIFPPSDEQLKSGTASVVCLLNNFYPREAKVQWKVDNALQSGNSQESVTEQDSKDSTYSLSSTLTLSKADYEKHKVYACEVTHQGLSSPVTKSFNRGEC
notes: Substitutions introduced into M103205H795-SG1, expressed with M103202L889-SK1 as light chain; EU numbering
Kd [1]: 240 nM | Kd [2]: 1900 nM | Kd [3]: 170 nM | Kd [4]: 530 nM | Kd [5]: 930 nM | Kd [6]: 1100 nM | Kd [7]: 1700 nM | Kd [8]: 1200 nM

B2: M103205H795-MY530/M103202L889-SK1 (antibody, human IgG1, kappa)
heavy: B1 heavy with G233A, V241S, K328T
light: B1 light
notes: as for B1
Kd [1]: 170 nM | Kd [2]: 850 nM | Kd [3]: 270 nM | Kd [4]: 320 nM | Kd [5]: 2500 nM | Kd [6]: 1600 nM | Kd [7]: 13 nM | Kd [8]: 1100 nM

B3: M103205H795-MY532/M103202L889-SK1 (antibody, human IgG1, kappa)
heavy: B1 heavy with G233A, L236W
light: B1 light
notes: as for B1
Kd [1]: 210 nM | Kd [2]: 860 nM | Kd [3]: 190 nM | Kd [4]: 230 nM | Kd [5]: 740 nM | Kd [6]: 830 nM | Kd [7]: 770 nM | Kd [8]: 600 nM

B4: M103205H795-MY526/M103202L889-SK1 (antibody, human IgG1, kappa)
heavy: B1 heavy with G233T, Q297L
light: B1 light
notes: as for B1
Kd [1]: 170 nM | Kd [2]: 16000 nM | Kd [3]: 210 nM | Kd [4]: 450 nM | Kd [5]: 1300 nM | Kd [6]: 1200 nM | Kd [7]: 13000 nM | Kd [8]: 1200 nM

B5: M103205H795-MY529/M103202L889-SK1 (antibody, human IgG1, kappa)
heavy: B1 heavy with G233A, L236W, V241S, Q297L
light: B1 light
notes: as for B1
Kd [1]: 230 nM | Kd [2]: 2200 nM | Kd [3]: 530 nM | Kd [4]: 390 nM | Kd [5]: 3200 nM | Kd [6]: 1400 nM | Kd [7]: 1000 nM | Kd [8]: 1400 nM

B6: M103205H795-MY524/M103202L889-SK1 (antibody, human IgG1, kappa)
heavy: B1 heavy with V241S, Q297L
light: B1 light
notes: as for B1
Kd [1]: 110 nM | Kd [2]: 2000 nM | Kd [3]: 280 nM | Kd [4]: 310 nM | Kd [5]: 2700 nM | Kd [6]: 1000 nM | Kd [7]: 1000 nM | Kd [8]: 11000 nM

B7: M103205H795-MY528/M103202L889-SK1 (antibody, human IgG1, kappa)
heavy: B1 heavy with G233A, L236W, V241S
light: B1 light
notes: as for B1
Kd [1]: 390 nM | Kd [2]: 2000 nM | Kd [3]: 360 nM | Kd [4]: 410 nM | Kd [5]: 3200 nM | Kd [6]: 2200 nM | Kd [7]: 1400 nM | Kd [8]: 1500 nM

B8: M103205H795-MY525/M103202L889-SK1 (antibody, human IgG1, kappa)
heavy: B1 heavy with G233T
light: B1 light
notes: as for B1
Kd [1]: 210 nM | Kd [2]: 1400 nM | Kd [3]: 160 nM | Kd [4]: 510 nM | Kd [5]: 1100 nM | Kd [6]: 1200 nM | Kd [7]: 1600 nM | Kd [8]: 1100 nM

B9: M103205H795-MY531/M103202L889-SK1 (antibody, human IgG1, kappa)
heavy: B1 heavy with G233A, L236W, V241S, K328T
light: B1 light
notes: as for B1
Kd [1]: 290 nM | Kd [2]: 1000 nM | Kd [3]: 410 nM | Kd [4]: 270 nM | Kd [5]: 2200 nM | Kd [6]: 1500 nM | Kd [7]: 1100 nM | Kd [8]: 920 nM

B10: M103205H795-MY523/M103202L889-SK1 (antibody, human IgG1, kappa)
heavy: B1 heavy with Q297L
light: B1 light
notes: as for B1
Kd [1]: 190 nM | Kd [2]: 2100 nM | Kd [3]: 210 nM | Kd [4]: 430 nM | Kd [5]: 1100 nM | Kd [6]: 1100 nM | Kd [7]: 1400 nM | Kd [8]: 1300 nM

B11: M103205H795-MY527/M103202L889-SK1 (antibody, human IgG1, kappa)
heavy: B1 heavy with G233T, V241S, Q297L
light: B1 light
notes: as for B1
Kd [1]: 110 nM | Kd [2]: 1500 nM | Kd [3]: 290 nM | Kd [4]: 340 nM | Kd [5]: 3400 nM | Kd [6]: 1400 nM | Kd [7]: 1100 nM | Kd [8]: 1300 nM
